In patent US12371675B2, “Process and microorganism for synthesis of adipic acid from carboxylic acids” (THE GOVERNING COUNCIL OF THE UNIVERSITY OF TORONTO, priority 2015, dated 2025):

Columns and labels:
[1] = AT activity coupled with alanine and glutamate dehydrogenases; format: biochemical; settings: 10 mM adipaldehyde, alanine and glutamate amino-donors; ND = no activity was detected
[2] = AR reductase activity, NAD(P)H oxidation at 340 nm; format: biochemical; settings: 10 mM; ND = no activity was detected
Protocol: Enzyme activity of purified ARs was measured spectrophotometrically in 96-well plates Reaction mixtures contained 100 mM HEPES buffer (pH 7.5), 0.4 mM NADH/NADPH, 10 mM adipaldehyde or butylaldehyde, and proteins (10 μg for adipaldehyde screen, 2 μg for butyraldehyde screen) in a final volume of 200 μL Reaction mixture for adipaldehyde screening contained 1.8% DMSO. Enzyme reactions were monitored by following the decrease in absorbance at 340 nm (ε340 nm=6,220/M·cm) due to oxidation of NAD(P)H to NAD(P)+.

Molecule	Adipaldehyde 10 mM U/mg [1]	Activity [U/mg protein] Butyraldehyde [2]
SCO5676: aminotransferase (AT) from Streptomyces coelicolor (protein) MTALPQERRVVTAIPGPKSQELQARRTAVVAQGVGSTLPVFVARAGGGVIEDVDGNRLIDFGSGIAVTSVGASAEAVVRKASAQLADFTHTCFMVTPYEGYVAVAEALAELTPGDHAKKSALFNSGAEAVENAVKIARAYTKRQAVVVFDHGYHGRTNLTMALTAKNMPYKHGFGPFAPEVYRVPVAYGYRWPTGAENAGPEAAAQAIDQISKQVGAENVAAVIIEPVLGEGGFIEPAKGFLPAIREFASDNGIVFVADEIQSGFCRTGQWFACEDEGIVPDLITTAKGIAGGLPLSAVTGRAEIMDAAHSGGLGGTYGGNPVACAGALGAIETMKELDLNARAKDIEAVMKSRLAAMAEKFDVIGDVRGRGAMIAIELVKDRETKEPNPAATAALAKACHQEGLLVLTCGTYGNVLRFLPPLVIGEDLLNEGLDIIEQAFTRV	0.084 ± 0.015 U/mg	–
PP4421: aminotransferase (AT) from Pseudomonas putida (protein) MDKQKQDLISQQDRGAVLHPFTQLKDFASGKAGDPTIIETAKGITITDATGREYIDGFAGLYCMNVGYGRTEVAEAISKQAHKLAYYHTYAAHTTEELARLSDRLVKMAPGKMSKVFYGMSGSDANETQAKLVWYYNNLRGKPNKKKIIARERGYHGCSVVSGSMTGMSFYHDHMDLPIAGILRTGAPHYYWGAEPGETELEFSARRARELEELILREGPDTIGAFIAEPVLGTGGITPPPEGYWAAVQPVLKKYDILLIADEVITGFGRTGAMFGCDKYGIEPDLITVAKGLTSAYAPLSASIVGEKVYKVMEEGADRVGAFSHGYTYSGHPIGVAAANAVLDIVEGENIPAHVDKVGQYFQKSMQETFSSLPIVGEVRGVGMMAAIEFVADPATKKRFDPALKVGARISKAARDRNLIARAMPHGEILGFAPPLVTTEQEVDRIISIAHEAVLSVLDELKV	0.061 ± 0.001 U/mg	–
Atu2528: aldehyde reductase (AR) from Agrobacterium fabrum (protein) MQPFVYMAAPARIVFSAGSSADVAEEIRRLGLSRALVLSTPQQKGDAEALASRLGRLAAGVFSEAAMHTPVEVTKTAVEAYRAAGADCVVSLGGGSTTGLGKAIALRTDAAQIVIPTTYAGSEVTPILGQTENGVKTTMRGPEILPEVVIYDAELTLGLPVAISMTSGLNAMAHAAEALYARDRNPIASMMAVEGLRAMIEALPVVRQAPHDIGARETALYGAWLCGTVLGAVGMSLHHKLCHTLGGSLDLPHAETHAVLLPHTIAYVEEAAPNLLAPLAALVGGRAGAGLFDFAARLGAPSSLAALGVGADDLDPMAELATANPYWCPRPIEKTAIRDLLQRAFEGARPA	–	0.110 ± 0.089 U/mg protein
SAV2583: aminotransferase (AT) from Streptomyces avermitilis (protein) MSALPQERRVVTAIPGPKSQELQARRTAVVAAGVGSVLPVFTTRAGGGIIEDVDGNRLIDFGSGIAVTSVGASAEAVVRRASAQLQDFTHTCFMVTPYEGYVAVAEALAELTPGDHAKKSALFNSGAEAVENAVKIARAYTKRQAVVVFDHGYHGRTNLTMALTAKNMPYKNGFGPFAPEVYRVPVAYGYRWLTGPENAGAEASAQAIDMINKQIGADNVAAIIIEPVLGEGGFIEPAKGFLPAISKFAKDNGIVFVADEIQSGFCRTGQWFACEDEGIVPDLITTAKGIAGGLPLAAVTGRAEIMDAAHAGGLGGTYGGNPVACAGALGAIETMKELDLNAKAKNIEAVMKARLGAMAEKFDIIGDVRGRGGMIAIELVKDRDTKEPNPEAAGALAKACHQEGLLVLTCGTYGNVLRFLPPLVIGEDLLNEGLDIIEQAFSRI	0.136 ± 0.011 U/mg	–
